Laboratory results reported in patent publication US20030143595A1.

Biological target: Shh-AP fusion protein (Sonic hedgehog fused to alkaline phosphatase)
Assay: ligand-receptor binding study, Scatchard analysis (FIG. 3)

Sequence of Shh-AP fusion protein (Sonic hedgehog fused to alkaline phosphatase) (Q62226 25-198): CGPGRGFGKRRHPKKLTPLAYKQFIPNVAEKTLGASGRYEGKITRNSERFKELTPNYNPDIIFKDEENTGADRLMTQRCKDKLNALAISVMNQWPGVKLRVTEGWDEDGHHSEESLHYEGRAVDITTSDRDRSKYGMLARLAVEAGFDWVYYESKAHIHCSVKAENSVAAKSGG

- Kd: 1 nM
B1: murine HIP polypeptide (mouse hedgehog interacting protein) (receptor)
chain: LGFFEGDAKFGERSEGSGARRRRCLNGNPPKRLKRRDRRVMSQLELLSGGEILCGGFYPRVSCCLQSDSPGLGRLENKIFSATNNSECSRLLEEIQCAPCSPHSQSLFYTPERDVLDGDLALPLLCKDYCKEFFYTCRGHIPGLLQTTADEFCFYYARKDAGLCFPDFPRKQVRGPASNYLGQMEDYEKVGGISRKHKHNCLCVQEVMSGLRQPVSAVHSGDGSHRLFILEKEGYVKILTPEGELFKEPYLDIHKLVQSGIKGGDERGLLSLAFHPNYKKNGKLYVSYTTNQERWAIGPHDHILRVVEYTVSRKNPHQVDVRTARVFLEVAELHRKHLGGQLLFGPDGFLYIILGDGMITLDDMEEMDGLSDFTGSVLRLDVDTDMCNVPYSIPRSNPHFNSTNQPPEVFAHGLHDPGRCAVDRHPTDININLTILCSDSNGKNRSSARILQIIKGRDYESEPSLLEFKPFSNGPLVGGFVYRGCQSERLYGSYVFGDRNGNFLTLQQSPVTKQWQEKPLCLGASSSCRGYFSGHILGFGEDELGEVYILSSSKSMTQTHNGKLYKIVDPKRPLMPEECRVTVQPAQPLTSDCSRLCRNGYYTPTGKCCCSPGWEGDFCRIAKCEPACRHGGVCVRPNKCLCKKGYLGPQCEQVDRNVRRVTRAGILDQIIDMTSYLLDLTSYIV
